From paper PMC7384550 (Journal of molecular biology, 2019)

T1: SinR (Bacillus subtilis, UniProt P06533 1-111)
T1 sequence: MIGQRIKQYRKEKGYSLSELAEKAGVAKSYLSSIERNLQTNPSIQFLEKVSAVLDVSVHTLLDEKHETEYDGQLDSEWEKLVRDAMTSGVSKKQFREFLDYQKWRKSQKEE

B1: SinR (full-length, tetrameric transcriptional repressor) (natural protein, Bacillus subtilis, UniProt P06533 1-111, looked up)
chain: MIGQRIKQYRKEKGYSLSELAEKAGVAKSYLSSIERNLQTNPSIQFLEKVSAVLDVSVHTLLDEKHETEYDGQLDSEWEKLVRDAMTSGVSKKQFREFLDYQKWRKSQKEE

Columns and labels:
[1] = biological target: B1; test: AUC
[2] = biological target: the molecule itself; test: SEC
[3] = biological target: the molecule itself; test: AUC
[4] = biological target: T1, SinR; test: fluorescence anisotropy/polarization
[5] = biological target: T1, SinR; test: fluorescence quenching DNA-bending assay

Row | binding result [1] | Binder | stoichiometry N [2] | other results
1 | binds | SinI (antagonist of SinR) (natural protein, Bacillus subtilis, UniProt P23308 1-57, looked up) MKNAKQEHFELDQEWVELMVEAKEANISPEEIRKYLLLNKKSAHPGPAARSHTVNPF | 2 | –
2 | binds | SinI^quad (SinI K34E, L38Y, K41W, S42R) (natural protein, Bacillus subtilis, UniProt P23308 1-57, looked up) MKNAKQEHFELDQEWVELMVEAKEANISPEEIREYLLYNKWRAHPGPAARSHTVNPF | – | stoichiometry N [3]: 2
3 | – | 22-mer inverted repeat, 6-FAM (dsDNA) DNA 1: TTTGTTCTCTAAAGAGAACTTA DNA 2: TAAGTTCTCTTTAGAGAACAAA | – | Kd [4]: 249 ± 38 nM
4 | – | 90 bp tapA-sipW-tasA promoter bending substrate (dsDNA, internal fluorescein-dT (T22 of strand 1); internal BHQ-1-dT (T25 of strand 2), both written as T) DNA 1: GAAAGTTCTCTAAAGAGAACATTATAAATAATAAGGGAAGTGCAGTAAATTAGAGGAAAATCATGTATTGTTCTCTAAAGAGAACTTAG DNA 2: CTAAGTTCTCTTTAGAGAACAATATCATGATTTTCCTCTAATTTACTGCACTTCCCTTATTATTTATAATGTTCTCTTTAGAGAACTTTC | – | binding result [5]: binds
5 | – | B1 | 4 | –
6 | – | EYDGQLDSEWEKLVRDAMTSGVSKKQFREFLDYQKWRKSQKEE (domain or fragment, Bacillus subtilis, UniProt P06533 69-111, looked up) [SinRC, the C-terminal oligomerization domain of SinR (residues 69-111)] | 4 | –
